In article PMC5609567 (Biochemical Pharmacology, 2017):

What was measured:
Test in all cases: Radioligand binding
V198A RAMP2/CLR = test system: V198A RAMP2/CLR; parameters: species or system human; details: 125I-AM bound (span of displacement curve) normalized to WT, n = 3
Experimental: (§1) This was performed on membranes made from transfected Cos7 cells, essentially as described elsewhere. […] Incubations were terminated by centrifugation.
Radioligand binding data were analysed in Graphpad Prism as described for the cAMP assays. […] Thus for each mutant, the total specific binding relative to WT was calculated from the span values and the 95% confidence limits were calculated. This relies on the Bmax value not changing; while this is consistent with our ELISA data, we cannot rule out a contribution to […] arising from a small change in receptor expression.

M230A RAMP2/CLR = biological target: T1, M230A RAMP2/CLR (Homo sapiens, UniProt O60895+Q16602, M230A); details: 125I-AM bound (span of displacement curve) normalized to WT, n = 3
T1 construct: expressed in transfected cells; host or cells: Cos7 (membranes)
T1 sequence (Q16602 23-461 M230A): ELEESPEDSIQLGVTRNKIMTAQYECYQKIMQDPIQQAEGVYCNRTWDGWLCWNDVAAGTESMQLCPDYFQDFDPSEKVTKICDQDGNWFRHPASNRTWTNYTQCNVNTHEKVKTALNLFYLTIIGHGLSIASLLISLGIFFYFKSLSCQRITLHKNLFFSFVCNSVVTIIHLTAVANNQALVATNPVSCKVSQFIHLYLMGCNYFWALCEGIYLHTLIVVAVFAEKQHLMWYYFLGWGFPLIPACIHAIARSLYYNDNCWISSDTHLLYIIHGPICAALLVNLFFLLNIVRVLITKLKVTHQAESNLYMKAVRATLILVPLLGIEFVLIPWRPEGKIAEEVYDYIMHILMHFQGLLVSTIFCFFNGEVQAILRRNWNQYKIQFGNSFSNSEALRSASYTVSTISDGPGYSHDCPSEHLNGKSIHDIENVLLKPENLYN
T1 sequence (O60895 43-175): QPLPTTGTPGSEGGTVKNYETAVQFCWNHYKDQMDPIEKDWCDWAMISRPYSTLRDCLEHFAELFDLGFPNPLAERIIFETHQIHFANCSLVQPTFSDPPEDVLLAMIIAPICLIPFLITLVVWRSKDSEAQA
Experimental: as §1
(§2) Radioligand binding data were analysed in Graphpad Prism as described for the cAMP assays.

N305A RAMP2/CLR = biological target: T2, N305A RAMP2/CLR (Homo sapiens, UniProt O60895+Q16602, N305A); details: 125I-AM bound (span of displacement curve) normalized to WT, n = 3
T2 construct: expressed in transfected cells; host or cells: Cos7 (membranes)
T2 sequence (Q16602 23-461 N305A): as the sequence (Q16602 23-461 M230A) above, with A208M, N283A counted along it
T2 sequence (O60895 43-175): as the sequence (O60895 43-175) above
Experimental: as §1, §2

E348A RAMP2/CLR = biological target: T3, E348A RAMP2/CLR (Homo sapiens, UniProt O60895+Q16602, E348A); details: 125I-AM bound (span of displacement curve) normalized to WT, n = 3
T3 construct: expressed in transfected cells; host or cells: Cos7 (membranes)
T3 sequence (Q16602 23-461 E348A): as the sequence (Q16602 23-461 M230A) above, with A208M, E326A counted along it
T3 sequence (O60895 43-175): as the sequence (O60895 43-175) above
Experimental: as §1, §2

F349A RAMP2/CLR = biological target: T4, F349A RAMP2/CLR (Homo sapiens, UniProt O60895+Q16602, F349A); details: 125I-AM bound (span of displacement curve) normalized to WT, n = 3
T4 construct: expressed in transfected cells; host or cells: Cos7 (membranes)
T4 sequence (Q16602 23-461 F349A): as the sequence (Q16602 23-461 M230A) above, with A208M, F327A counted along it
T4 sequence (O60895 43-175): as the sequence (O60895 43-175) above
Experimental: as §1, §2

WT RAMP1/CLR = biological target: T5, WT RAMP1/CLR (Homo sapiens, UniProt O60894+Q16602); details: WT CLR/RAMP1, Cos7 membranes
T5 construct: expressed in transfected cells; host or cells: Cos7 (membranes)
T5 sequence (Q16602 23-461): as the sequence (Q16602 23-461 M230A) above, with A208M counted along it
T5 sequence (O60894 27-148): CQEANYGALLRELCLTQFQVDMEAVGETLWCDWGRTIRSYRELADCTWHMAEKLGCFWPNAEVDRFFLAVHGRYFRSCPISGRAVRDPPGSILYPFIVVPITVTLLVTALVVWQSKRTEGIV
Experimental: as §1, §2

H374A RAMP1/CLR = biological target: T6, H374A RAMP1/CLR (Homo sapiens, UniProt O60894+Q16602, H374A); details: H374A CLR/RAMP1, Cos7 membranes
T6 construct: expressed in transfected cells; host or cells: Cos7 (membranes)
T6 sequence (Q16602 23-461 H374A): as the sequence (Q16602 23-461 M230A) above, with A208M, H352A counted along it
T6 sequence (O60894 27-148): as the sequence (O60894 27-148) above
Experimental: as §1, §2

% Ligand bound (V198A RAMP2/CLR): 116.2 ± 3.7 %
% Ligand bound (M230A RAMP2/CLR): 109.4 ± 3.7%
% Ligand bound (N305A RAMP2/CLR): 62.7 ± 4.7 %
% Ligand bound (E348A RAMP2/CLR): 147.9 ± 2.9 %
% Ligand bound (F349A RAMP2/CLR): 132.3 ± 4.3 %
specific binding of 125I-AM (WT RAMP1/CLR): 78 ± 208 dpm/mg
specific binding of 125I-AM (H374A RAMP1/CLR): 5243 ± 112 dpm/mg
Substance: [^125I]-human (13–52) iodotyrosyl^52adrenomedullin [125I-AM]
